Earlier results on 5 substances are cited in article PMC7702019 (ACS chemical biology, 2020).

For the data set the following is noted: for amyloidogenicity: under normal conditions, rat and mouse amylin.

Bridges are numbered along the chain shown (N, C = ends). Where no end group is shown, it is not given here.

As to “H18R: H18R substitution of human amylin (literature) (KCNTATCATQRLANFLVRSSNNFGAILSSTNVGSNTY; ends and bridges not checked; cysteine pairing not given here; UniProt P10997 34-70, looked up, variant H18R)”, the “rate of amyloid formation in vitro” value (substitution in human amylin, in vitro) is listed as “reduces the rate of amyloid formation”.

With “bovine amylin: bovine amylin (CGTATCETQRLANFLAPSSNKLGAIFSPTKMGSNTY; ends and bridges not checked; cysteine pairing not given here; UniProt Q28207 37-72, looked up)”, the “amyloidogenicity relative to human amylin” value (porcine and bovine amylin) is reported as “much less amyloidogenic than human amylin”.

Take “Pramlintide: triple mutant of human amylin with A25, S28, and S29 replaced by Pro (KCNTATCATQRLANFLVHSSNNFGPILPPTNVGSNTY-NH2; disulfide 2-7; UniProt P10997 34-70, looked up, variant A25P S28P S29P)”: under “pramlintide, reference not given”, the amyloidogenicity in vitro entry was “not amyloidogenic in vitro, except at high concentrations”.

Take “rat amylin: contains prolines at position 25, 28, and 29 and a H18R replacement relative to human amylin”: the amyloidogenicity entry was “not amyloidogenic under normal conditions”. For the same substance, the “amyloid formation in vitro” value (in vitro, reference not given) is recorded as “form amyloid in vitro, but only at very high non-physiological conditions”.

For “mouse amylin: identical sequence to rat amylin”, the amyloidogenicity result is “not amyloidogenic under normal conditions”.
